Source: US20200199533A1 (KING ABDULLAH UNIVERSITY OF SCIENCE AND TECHNOLOGY, published 2020)

Columns and labels:
[1] = biological target: T1, CD43, native glycoprotein from KG1a cells (human, UniProt P16150 20-400, native glycosylation); experiment: SPR; CD43 captured from KG1a lysate on polyclonal CD43 Ab, E-Ig injected (3.9-2000 nM), 150 mM NaCl; steady-state model; mean ± SEM
T1 construct: mature
T1 sequence (looked up): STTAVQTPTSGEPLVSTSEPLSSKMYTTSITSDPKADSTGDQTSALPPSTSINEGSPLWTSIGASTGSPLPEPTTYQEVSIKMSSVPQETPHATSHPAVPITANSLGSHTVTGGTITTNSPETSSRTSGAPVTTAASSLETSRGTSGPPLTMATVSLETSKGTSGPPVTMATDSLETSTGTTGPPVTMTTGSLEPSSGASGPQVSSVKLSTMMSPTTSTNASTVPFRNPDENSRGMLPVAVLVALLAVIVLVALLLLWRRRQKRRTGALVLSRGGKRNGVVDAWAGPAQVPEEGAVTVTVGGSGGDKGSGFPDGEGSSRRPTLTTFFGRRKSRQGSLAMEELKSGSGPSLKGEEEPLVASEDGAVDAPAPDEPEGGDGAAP

[2] = biological target: CD44 (HCELL), native glycoprotein from human HSPCs (KG1a, CD34^pos fraction) (human) (UniProt P16070); experiment: SPR; CD44 captured from KG1a lysate on Hermes-3-mAb, E-Ig injected, 150 mM NaCl; apparent rate constant; 1st experiment
Sequence of CD44 (HCELL), native glycoprotein from human HSPCs (KG1a, CD34^pos fraction) (human) (P16070 21-742): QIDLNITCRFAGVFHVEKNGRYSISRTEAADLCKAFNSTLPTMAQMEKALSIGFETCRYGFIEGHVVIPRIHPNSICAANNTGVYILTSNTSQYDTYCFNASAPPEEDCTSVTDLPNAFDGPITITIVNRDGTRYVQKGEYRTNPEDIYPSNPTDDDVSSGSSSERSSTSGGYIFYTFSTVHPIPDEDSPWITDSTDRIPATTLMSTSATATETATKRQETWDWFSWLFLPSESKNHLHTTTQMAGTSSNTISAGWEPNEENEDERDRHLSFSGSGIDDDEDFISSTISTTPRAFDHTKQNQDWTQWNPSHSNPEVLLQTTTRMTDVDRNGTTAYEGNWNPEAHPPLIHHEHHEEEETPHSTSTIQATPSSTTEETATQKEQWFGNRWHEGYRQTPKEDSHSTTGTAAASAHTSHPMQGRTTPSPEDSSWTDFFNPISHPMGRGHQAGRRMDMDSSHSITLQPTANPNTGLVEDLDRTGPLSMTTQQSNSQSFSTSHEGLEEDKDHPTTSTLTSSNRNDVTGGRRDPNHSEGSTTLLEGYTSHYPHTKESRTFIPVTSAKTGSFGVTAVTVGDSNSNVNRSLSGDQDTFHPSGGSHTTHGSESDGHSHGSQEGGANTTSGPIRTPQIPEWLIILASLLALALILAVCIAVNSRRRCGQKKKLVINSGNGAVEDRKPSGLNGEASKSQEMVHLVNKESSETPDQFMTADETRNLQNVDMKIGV

[3] = biological target: T2, PSGL-1, native glycoprotein from human HSPCs (KG1a, CD34^pos-BM) (human, UniProt Q14242 42-412, native glycosylation and tyrosine sulfation); experiment: SPR; PSGL-1 captured from KG1a lysate on KPL-1-mAb, E-Ig injected (3.9-2000 nM), 150 mM NaCl; steady-state model; 2nd experiment
T2 construct: mature; also called P-selectin glycoprotein ligand-1
T2 sequence (looked up): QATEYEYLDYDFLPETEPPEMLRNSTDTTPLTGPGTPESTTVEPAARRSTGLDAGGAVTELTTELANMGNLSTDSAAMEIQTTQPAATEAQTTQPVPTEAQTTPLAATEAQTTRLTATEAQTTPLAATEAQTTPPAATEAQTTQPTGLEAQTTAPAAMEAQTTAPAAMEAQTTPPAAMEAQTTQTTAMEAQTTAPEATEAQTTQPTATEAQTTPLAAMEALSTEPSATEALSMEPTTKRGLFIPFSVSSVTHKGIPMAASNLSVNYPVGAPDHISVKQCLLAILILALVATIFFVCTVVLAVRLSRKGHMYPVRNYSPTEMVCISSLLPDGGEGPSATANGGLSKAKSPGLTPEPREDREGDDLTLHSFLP

B1: recombinant E-selectin human immunoglobulin chimeric protein (Fc fusion)
chain: WSYNTSTEAMTYDEASAYCQQRYTHLVAIQNKEEIEYLNSILSYSPSYYWIGIRKVNNVWVWVGTQKPLTEEAKNWAPGEPNNRQKDEDCVEIYIKREKDVGMWNDERCSKKKLALCYTAACTNTSCSGHGECVETINNYTCKCDPGFSGLKCEQIVNCTALESPEHGSLVCSHPLGNFSYNSSCSISCDRGYLPSSMETMQCMSSGEWSAPIPACNVVECDAVTNPANGFVECFQNPGSFPWNTTCTFDCEEGFELMGAQSLQCTSSGNWDNEKPTCKAVTCRAVRQPQNGSVRCSHSPAGEFTFKSSCNFTCEEGFMLQGPAQVECTTQGQWTQQIPVCEAFQCTALSNPERGYMNCLPSASGSFRYGSSCEFSCEQGFVLKGSKRLQCGPTGEWDNEKPTCEAVRCDAVHQPPKGLVRCAHSPIGEFTYKSSCAFSCEEGFELHGSTQLECTSQGQWTEEVPSCQVVKCSSLAVPGKINMSCSGEPVFGTVCKFACPEGWTLNGSAARTCGATGHWSGLLPTCEAPTESNIP
Kd [1]: 442 nM
koff [2]: 0.00011 s⁻¹
kon [2]: 641 M⁻¹ s⁻¹
Kd [3]: 207 nM
